# Test results taken from US20250025499A1 (published 2025).
# T1: spermatogenesis-associated protein 1 (SPATA1) peptide on HLA-B*40:01 (human)
# T1 peptide: VEDRTIRQL
# T2: SF3B1 K700E epitope with alanine at position 1 peptide on HLA-B*40:01 (human)
# T2 peptide: AEVRTISAL
# T3: SF3B1 K700E epitope with alanine at position 2 peptide on HLA-B*40:01 (human)
# T3 peptide: QAVRTISAL
# T4: SF3B1 K700E epitope with alanine at position 3 peptide on HLA-B*40:01 (human)
# T4 peptide: QEARTISAL
# T5: SF3B1 K700E epitope with alanine at position 4 peptide on HLA-B*40:01 (human)
# T5 peptide: QEVATISAL
# T6: SF3B1 K700E epitope with alanine at position 5 peptide on HLA-B*40:01 (human)
# T6 peptide: QEVRAISAL
# T7: SF3B1 K700E epitope with alanine at position 6 peptide on HLA-B*40:01 (human)
# T7 peptide: QEVRTASAL
# T8: SF3B1 K700E epitope with alanine at position 7 peptide on HLA-B*40:01 (human)
# T8 peptide: QEVRTIAAL
# T9: SF3B1 K700E epitope with glycine at position 8 peptide on HLA-B*40:01 (human)
# T9 peptide: QEVRTISGL
# T10: SF3B1 K700E epitope with valine at position 8 peptide on HLA-B*40:01 (human)
# T10 peptide: QEVRTISVL
# T11: SF3B1 wild-type peptide on HLA-B*40:01 (human)
# T11 peptide: QKVRTISAL
# T12: SF3B1 K700E epitope with alanine at position 9 peptide on HLA-B*40:01 (human)
# T12 peptide: QEVRTISAA
# T13: SF3B1 K700E peptide on HLA-B*40:02 (human)
# T13 peptide: QEVRTISAL
# T14: CBFB-MYH11 type A peptide on HLA-B*40:01 (human)
# T14 peptide: REEMEVHEL
# T15: alkylglycerone-phosphate synthase (AGPS) peptide on HLA-B*40:01 (human)
# T15 peptide: DETRTIISL
# T16: mitochondrial trifunctional enzyme subunit alpha (HADHA) peptide on HLA-B*40:01 (human)
# T16 peptide: PEERTIEYL
# T17: Gem-associated protein 5 (GEMIN5) peptide on HLA-B*40:01 (human)
# T17 peptide: IEPRTIFCL
# T18: SF3B1 K700E peptide on HLA-B*40:01 (human)
# T18 peptide: QEVRTISAL
# B1: TCR24 (SF3B1^K700E/B*40:01-specific TCR from clone 24) (TCR, V domains shown)
# Valpha: AQSVTQPDIHITVSEGASLELRCNYSYGATPYLFWYVQSPGQGLQLLLKYFSGDTLVQGIKGFEAEFKRSQSSFNLRKPSVHWSDAAEYFCAVAAKDSSYKLIFGSGTRLLVRP
# Vbeta: SAVISQKPSRDICQRGTSLTIQCQVDSQVTMMFWYRQQPGQSLTLIATANQGSEATYESGFVIDKFPISRPNLTFSTLTVSNMSPEDSSIYLCSDRGQVVGETQYFGPGTRLLVL
# Legend:
# [1] = molecular target: T1, spermatogenesis-associated protein 1 …; assay: killing
# Procedure: (§1) LCL were pulsed with QEVRTISAL (SEQ ID NO: 1) peptide at 1000 ng/ml prior to co-culture (>5 biological replicates per HLA). […] The tested peptides include […] (SEQ ID NO: 50), […] (SEQ ID NO: 64), and […] (SEQ ID NO: 65). QEVRTISAL (SEQ ID NO: 1) peptide and the wild-type equivalent QKVRTISAL (SEQ ID NO: 2) were included as controls (3 technical replicate experiments). […] For all experiments, mean and standard error of the mean (SEM) are shown.
# (§2) Cytotoxicity was measured in short-term (4-hour) assays using 51Cr-labeled target cells. Briefly, target cells were labeled with ⁵¹Cr overnight (cell lines) or for 6 hours (primary leukemia) at 37° C. and 5% CO₂. Effector cells were added to labeled target cells and incubated for 4 hours. After co-incubation, supernatant was harvested for γ-counting. Specific lysis was calculated using a standard formula. Targets used included autologous LCL with and without peptides in varying concentrations. All targets were washed to remove excess 51Cr and residual interferon-γ or peptide before co-culture initiation.
# [2] = molecular target: T2, SF3B1 K700E epitope with alanine at …; assay: killing
# Procedure: as §1, §2
# [3] = molecular target: T3, SF3B1 K700E epitope with alanine at …; assay: killing
# Procedure: as §1, §2
# [4] = molecular target: T4, SF3B1 K700E epitope with alanine at …; assay: killing
# Procedure: as §1, §2
# [5] = molecular target: T5, SF3B1 K700E epitope with alanine at …; assay: killing
# Procedure: as §1, §2
# [6] = molecular target: T6, SF3B1 K700E epitope with alanine at …; assay: killing
# Procedure: as §1, §2
# [7] = molecular target: T7, SF3B1 K700E epitope with alanine at …; assay: killing
# Procedure: as §1, §2
# [8] = molecular target: T8, SF3B1 K700E epitope with alanine at …; assay: killing
# Procedure: as §1, §2
# [9] = molecular target: T9, SF3B1 K700E epitope with glycine at …; assay: killing
# Procedure: as §1, §2
# [10] = molecular target: T10, SF3B1 K700E epitope with valine at …; assay: killing
# Procedure: as §1, §2
# [11] = molecular target: T11, SF3B1 wild-type peptide on HLA-B*40:01; assay: killing
# Procedure: as §1, §2
# [12] = molecular target: T12, SF3B1 K700E epitope with alanine at …; assay: killing
# Procedure: as §1, §2
# [13] = molecular target: T13, SF3B1 K700E peptide on HLA-B*40:02; assay: killing
# Procedure: as §1, §2
# [14] = molecular target: T14, CBFB-MYH11 type A peptide on HLA-B*40:01; assay: killing
# Procedure: as §1, §2
# [15] = molecular target: T15, alkylglycerone-phosphate synthase …; assay: killing
# Procedure: as §1, §2
# [16] = molecular target: T16, mitochondrial trifunctional enzyme …; assay: killing
# Procedure: as §1, §2
# [17] = molecular target: T17, Gem-associated protein 5 (GEMIN5) …; assay: killing
# Procedure: as §1, §2
# [18] = molecular target: T18, SF3B1 K700E peptide on HLA-B*40:01; assay: peptide titration 51Cr-release assay; clone 24 against autologous LCL pulsed with varying peptide concentrations; T cell clone or line
# Procedure: as §1, §2
binder,measurement,setting,value
B1,binding result,[1],no recognition
same,binding result,[2],recognises
same,binding result,[3],no recognition
same,binding result,[4],recognises
same,binding result,[5],no recognition
same,binding result,[6],no recognition
same,binding result,[7],no recognition
same,binding result,[8],recognises
same,binding result,[9],recognises
same,binding result,[10],recognises
same,binding result,[11],no recognition
same,binding result,[12],no recognition
same,binding result,[13],no recognition
same,binding result,[14],no recognition
same,binding result,[15],no recognition
same,binding result,[16],no recognition
same,binding result,[17],no recognition
same,EC50 of peptide,[18],~0.1 ng/mL
